The target in assay [1] is T1, recombinant human IL-23 (human, UniProt Q9NPF7 20-189; P29460 23-328).
T1 construct: also called hIL-23
T1 sequence 1: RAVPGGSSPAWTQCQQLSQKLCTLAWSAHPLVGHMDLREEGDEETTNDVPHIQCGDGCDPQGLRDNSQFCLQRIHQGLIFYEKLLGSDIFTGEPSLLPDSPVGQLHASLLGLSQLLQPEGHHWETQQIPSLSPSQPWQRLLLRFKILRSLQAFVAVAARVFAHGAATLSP
T1 sequence 2: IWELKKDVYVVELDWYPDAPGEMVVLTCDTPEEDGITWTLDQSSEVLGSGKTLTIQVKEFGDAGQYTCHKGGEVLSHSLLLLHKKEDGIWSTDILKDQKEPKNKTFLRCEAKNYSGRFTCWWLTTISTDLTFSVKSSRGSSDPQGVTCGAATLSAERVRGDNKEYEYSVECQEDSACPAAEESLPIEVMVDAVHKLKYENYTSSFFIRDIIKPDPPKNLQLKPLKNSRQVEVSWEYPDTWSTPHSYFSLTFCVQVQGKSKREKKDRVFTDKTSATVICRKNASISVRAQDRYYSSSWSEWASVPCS
As to the kind of experiment: SPR (Biacore T100), tissue culture supernatant antibody captured on anti-human IgG, IL-23 analyte. The protocol:
Biacore analysis was carried out using a capture surface on a CM5 chip. Anti-human IgG (BR-1008-39) was used as the capturing agent. Anti-human IgG was coupled to a CM5 biosensor chip by primary amine coupling. Humanized antibody was captured on this immobilised surface and defined concentrations of IL-23 were passed over this captured surface. An injection of buffer over the captured antibody surface was used for double-referencing. […] T100 Biacore machine was used to generate the data; all runs were carried out at 25° C. using HBS EP. Data was analysed using the software inherent to the machine and fitted to the 1:1 model of binding. Tables 7 and 8 detail the IL-23 binding analysis carried out on the 8C92H6.HC1LC1 chimera and selected humanized variants in two separate experiments. […] The data shown for the humanized variants is representative of a number of runs. The chimeric mAb (8C9H6.HC1LC1) was only run once in each experiment, so data shown for this mAb is from that one run.

Assay [2] has as its target T1, recombinant human IL-23. The assay is described as follows: SPR (Biacore 3000), CHO supernatant antibody captured on Protein A or anti-human IgG, IL-23 analyte at 256, 64, 16, 4 nM. In general terms: Surface plasmon resonance follows binding to a sensor surface in real time, without labels.
Assay [3] concerns the target T1, recombinant human IL-23. As to the kind of experiment: SPR (Biacore 3000), purified antibody captured on Protein A or anti-human IgG, IL-23 analyte at 256, 64, 16, 4 nM. The protocol: (§1) Protein A or an anti-human IgG (Biacore BR-1008-39) was immobilised on a Biacore CM5 chip by primary amine coupling in accordance with the manufacturer's instructions. Anti IL-23 antibodies were captured on this surface and after a period of stabilisation, […] was passed over the antibody captured surface and a binding sensorgram was obtained. […] All runs were double referenced with a buffer injection over the captured antibody surface. Data was analysed using the 1:1 model using the software inherent to the Biacore 3000 or T100 depending upon which machine was used to generate kinetics. Analysis was carried out at 25° C. using HBS-EP buffer. Data presented in Tables 3-6 are on tissue culture supernatants of CHO cells transiently expressing the antibody of interest unless otherwise indicated. Data was generated using concentrations of IL-23 (256, 64, 16, 4, 1 and 0.25 nM) The data shown for the humanized variants is representative of a number of runs, The chimeric mAb (8C9H6.HC1LC1) was only run once in each experiment, so data shown for this mAb is from that one run, […]

Assay [4] addresses T1, recombinant human IL-23. As to the kind of experiment: SPR (Biacore 3000), CHO supernatant antibody captured on Protein A or anti-human IgG, IL-23 analyte at 100, 10, 1 nM. The protocol:
as §1, with “indicated.” for “indicated. Data was generated using concentrations of IL-23 (256, 64, 16, 4, 1 and 0.25 nM) The data shown for the humanized variants is representative of a number of runs, The chimeric mAb (8C9H6.HC1LC1) was only run once in each experiment, so data shown for this mAb is from that one run,”

Assay [5] deals with T1, recombinant human IL-23. As to the kind of experiment: SPR (Biacore T100), transient material captured on Protein A or anti-human IgG, IL-23 analyte at 256, 64, 16, 4, 1 nM. The protocol:
as §1

For assay [6], the target named is T1, recombinant human IL-23. As to the kind of experiment: sandwich ELISA (optimised protocol, OD450): plate coated with anti-human IL-12, antibody pre-incubated with constant human IL-23, bound antibody detected with anti-human IgG gamma chain HRP; purified antibody. The protocol:
Optimised assay conditions: Plates were coated with anti human IL12 at 2 μg/diluent (phosphate buffered saline). 50 μl/well of this mixture was incubated overnight at 4° C. The plates were then washed three times with Phosphate Buffered Saline with 0.05% Tween 20 (PBST). Plates were blocked with 4% skim milk powder (Fluka BioChemika #70166) PBS 200 μl/well for a minimum of 1 hour at room temperature. The plates were then washed three times with Phosphate Buffered Saline+0.05% Tween 20 (PBST). Various concentrations of antibody were incubated in a separate plate with a constant concentration of IL-23 for 1 hour at room temperature. 50 ul of each mixture were transferred to the assay plate and incubated at RT for 1 hr. They were then washed three times with Phosphate Buffered Saline+0.05% Tween 20 (PBST). […] 50 μl/well of the detection antibody was added and incubated at RT for 1 hour. The plates were then washed three times with Phosphate Buffered Saline+0.05% Tween 20 (PBST). 50 μl/well of TMB was added to the plates and incubated at RT for 10 min. 50 μl/well of 1 MH₂SO₄ was added. The plate was read at OD450 nm using the SOftmaxPRO versamax plate reader.
For orientation: In an ELISA, binding on a coated surface is turned into a signal by an enzyme label.

Broadly, the Kd is the free concentration of one partner at which half of the binding sites on the other are occupied at equilibrium, for simple one-to-one binding. The koff is the rate constant with which the complex falls apart. As a reminder, the kon is the second-order rate constant of association. As usually defined, the EC50 (read off the curve) is the concentration at which the effect is half-maximal.

B1: A3M0 (antibody, human IgG1, kappa, V domains shown)
VH: QVQLVQSGAEVKKPGSSVKVSCKASGYTFTSYGITWVRQAPGQGLEWMGENYPRSGNTYYNEKFKGRVTITADKSTSTAYMELSSLRSEDTAVYYCARSEFISTVVAPYYYALDYWGQGTLVTVSS
VL: DIVMTQSPDSLAVSLGERATINCKASKKVTIFGSISALHWYQQKPGQPPKLIYNGAKLESGVPDRFSGSGSGTDFTLTISSLQAEDVAVYYCLQNKEVPYTFGGGTKVEIKR
notes: Full length chains; also called humanized mAb A3M0
On to B1, for which, in the assay with recombinant human IL-23 [1], the Kd worked out at 0.17 nM, the koff was found to be 0.000234 s⁻¹ and the kon worked out at 1.38e+06 M⁻¹ s⁻¹. Also, in the assay with recombinant human IL-23 [2], the Kd turned out to be 1.1 nM, the koff was 0.00033 s⁻¹ and the kon was determined as 300000 M⁻¹ s⁻¹.

B2: chimeric 8C92H6 HC1LC1 (antibody, V domains shown)
VH: QVQLQQSGAELARPGTSVKLSCKASGYTFTSYGITWVKQRTGQGLEWIGENYPRSGNTYYNEKFKGKATLTADKSSSTAYMELRSLTSEDSAVYFCARCEFISTVVAPYYYALDYWGQGTSLVTVS
VL: DIVLTQSPASLAVSLGQKATISCKASKKVTIFGSISALHWYQQKPGQPPKLIYNGAKLESGVSARFSDSGSQNRSPFGNQLSFTLTIDPVEADDAATYYCLQNKEVPYTFGGGTKLEIKR
notes: Murine variable regions with human constant regions; also called 8C92H6.HC1LC1 Chimera; 8C9 chimera
For the molecule B2, the Kd stood at 1.8 nM in the assay with recombinant human IL-23 [3], 1.4 nM with recombinant human IL-23 [4] and 1.8 nM in the assay with recombinant human IL-23 [5]. Also, the koff was found to be 0.00044 s⁻¹ with recombinant human IL-23 [3], 0.00039 s⁻¹ with recombinant human IL-23 [4] and 0.00038 s⁻¹ with recombinant human IL-23 [5]. Moreover, the kon stood at 240000 M⁻¹ s⁻¹ with recombinant human IL-23 [3], 270000 M⁻¹ s⁻¹ with recombinant human IL-23 [4] and 210000 M⁻¹ s⁻¹ with recombinant human IL-23 [5]. Besides, the “EC50 (read off the curve)” value in the assay with recombinant human IL-23 [6] is around 0.06 nM.

Values taken from patent publication US20090123479A1 (published 2009).
